Substitutions are numbered along the chain they refer to. Each block holds one binder with its values, some of them ahead of it.
Legend:
[1] = target: T1, Human CD137 on Jurkat cells (human, UniProt Q07011 24-255); experiment: cell-based or functional assay; design: IC90; Jurkat-CD137 NFkB-luciferase, HT1080-FAP co-culture / EC90; Jurkat-CD137 NFkB-luciferase, HT1080-FAP co-culture: unit not given beside the values
[2] = target: T1, Human CD137 on Jurkat cells; experiment: cell-based or functional assay

B1: CD137 #8 (A49.V43) + FAP #5 (C3 VK1/VH4) (bispecific antibody, human IgG1, kappa, L234A L235A)
heavy: not shown
light: EIVMTQSPLSLPVTPGEPASISCRSSQSLLYSNGYNHLDWYLQKPGQSPQLLIYLGSNRASGVPDRFSGSGSGTDFTLKISRVEAEDVGVYYCMQALQTPPTFGQGTKLEIKRTVAAPSVFIFPPSDEQLKSGTASVVCLLNNFYPREAKVQWKVDNALQSGNSQESVTEQDSKDSTYSLSSTLTLSKADYEKHKVYACEVTHQGLSSPVTKSFNRGEC
EC90; Jurkat-CD137 NFkB-luciferase, HT1080-FAP co-culture [1]: 0.98 | IC90; Jurkat-CD137 NFkB-luciferase, HT1080-FAP co-culture [1]: 54 | Total AUC; Jurkat-CD137 NFkB-luciferase, HT1080-FAP co-culture [1]: 3.18e+07 | Average EC50; Jurkat-CD137 NFkB-luciferase, HT1080-FAP co-culture [2]: 0.166 nM | Average EC90; Jurkat-CD137 NFkB-luciferase, HT1080-FAP co-culture [2]: 1.43 nM | Average IC50; Jurkat-CD137 NFkB-luciferase, HT1080-FAP co-culture [2]: 624 nM | Average IC90; Jurkat-CD137 NFkB-luciferase, HT1080-FAP co-culture [2]: 84.6 nM | Ratio IC50/EC50; Jurkat-CD137 NFkB-luciferase, HT1080-FAP co-culture [2]: 3750 | Ratio IC90/EC90; Jurkat-CD137 NFkB-luciferase, HT1080-FAP co-culture [2]: 59.4

B2: CD137 #9 (A49.V47) + FAP #3 (A11 VK7/VH1) (bispecific antibody, human IgG1, kappa, L234A L235A)
heavy: not shown
light: B1 light with N33Q, L55G
EC90; Jurkat-CD137 NFkB-luciferase, HT1080-FAP co-culture [1]: 1.65 | IC90; Jurkat-CD137 NFkB-luciferase, HT1080-FAP co-culture [1]: 1.07 | Total AUC; Jurkat-CD137 NFkB-luciferase, HT1080-FAP co-culture [1]: 9.5e+06

B3: CD137 #8 (A49.V43) + FAP #2 (A11 VK3/VH3) (bispecific antibody, human IgG1, kappa, L234A L235A)
heavy: not shown
light: B1 light
EC90; Jurkat-CD137 NFkB-luciferase, HT1080-FAP co-culture [1]: 5.04 | IC90; Jurkat-CD137 NFkB-luciferase, HT1080-FAP co-culture [1]: 467 | Total AUC; Jurkat-CD137 NFkB-luciferase, HT1080-FAP co-culture [1]: 2.5e+07 | Average EC50; Jurkat-CD137 NFkB-luciferase, HT1080-FAP co-culture [2]: 0.327 nM | Average EC90; Jurkat-CD137 NFkB-luciferase, HT1080-FAP co-culture [2]: 2.59 nM | Average IC50; Jurkat-CD137 NFkB-luciferase, HT1080-FAP co-culture [2]: 958 nM | Average IC90; Jurkat-CD137 NFkB-luciferase, HT1080-FAP co-culture [2]: 210 nM | Ratio IC50/EC50; Jurkat-CD137 NFkB-luciferase, HT1080-FAP co-culture [2]: 2930 | Ratio IC90/EC90; Jurkat-CD137 NFkB-luciferase, HT1080-FAP co-culture [2]: 81.2

B4: CD137 #9 (A49.V47) + FAP #2 (A11 VK3/VH3) (bispecific antibody, human IgG1, kappa, L234A L235A)
heavy: not shown
light: B1 light with N33Q, L55G
EC90; Jurkat-CD137 NFkB-luciferase, HT1080-FAP co-culture [1]: 3.01 | IC90; Jurkat-CD137 NFkB-luciferase, HT1080-FAP co-culture [1]: 93.8 | Total AUC; Jurkat-CD137 NFkB-luciferase, HT1080-FAP co-culture [1]: 7.6e+06

B9: CD137 #3 (B21.V22) + FAP #3 (A11 VK7/VH1) (bispecific antibody, human IgG1, kappa, L234A L235A)
heavy: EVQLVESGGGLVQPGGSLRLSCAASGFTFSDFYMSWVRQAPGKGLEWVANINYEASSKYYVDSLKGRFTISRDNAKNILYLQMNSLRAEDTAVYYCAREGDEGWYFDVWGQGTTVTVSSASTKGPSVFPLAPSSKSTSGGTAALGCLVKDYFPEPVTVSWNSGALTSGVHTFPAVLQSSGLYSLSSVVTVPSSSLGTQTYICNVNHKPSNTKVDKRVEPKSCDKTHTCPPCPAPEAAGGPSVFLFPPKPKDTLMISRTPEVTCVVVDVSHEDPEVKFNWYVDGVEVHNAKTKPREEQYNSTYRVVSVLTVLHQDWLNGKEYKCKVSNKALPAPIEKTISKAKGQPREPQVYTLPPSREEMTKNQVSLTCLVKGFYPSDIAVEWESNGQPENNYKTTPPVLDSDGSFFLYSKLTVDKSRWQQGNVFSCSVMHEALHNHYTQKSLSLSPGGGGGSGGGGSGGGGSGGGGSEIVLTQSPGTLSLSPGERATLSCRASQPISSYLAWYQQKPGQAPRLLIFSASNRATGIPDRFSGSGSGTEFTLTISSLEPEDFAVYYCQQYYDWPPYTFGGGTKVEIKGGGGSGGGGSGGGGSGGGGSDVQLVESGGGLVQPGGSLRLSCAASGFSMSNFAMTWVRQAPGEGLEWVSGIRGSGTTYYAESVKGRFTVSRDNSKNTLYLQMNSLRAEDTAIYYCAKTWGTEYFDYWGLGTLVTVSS
light: DIQMTQSPSSLSASVGDRVTITCRASQSVSSALAWYQQKPGKAPKLLIYAASYRQSGVPSRFSGSGSGTDFTLTISSLQPEDFAVYYCQQHYSNPWTFGQGTKLEIKRTVAAPSVFIFPPSDEQLKSGTASVVCLLNNFYPREAKVQWKVDNALQSGNSQESVTEQDSKDSTYSLSSTLTLSKADYEKHKVYACEVTHQGLSSPVTKSFNRGEC
EC90; Jurkat-CD137 NFkB-luciferase, HT1080-FAP co-culture [1]: 2.41 | IC90; Jurkat-CD137 NFkB-luciferase, HT1080-FAP co-culture [1]: 144 | Total AUC; Jurkat-CD137 NFkB-luciferase, HT1080-FAP co-culture [1]: 1.9e+06

B10: CD137 #3 (B21.V22) + FAP #2 (A11 VK3/VH3) (bispecific antibody, human IgG1, kappa, L234A L235A)
heavy: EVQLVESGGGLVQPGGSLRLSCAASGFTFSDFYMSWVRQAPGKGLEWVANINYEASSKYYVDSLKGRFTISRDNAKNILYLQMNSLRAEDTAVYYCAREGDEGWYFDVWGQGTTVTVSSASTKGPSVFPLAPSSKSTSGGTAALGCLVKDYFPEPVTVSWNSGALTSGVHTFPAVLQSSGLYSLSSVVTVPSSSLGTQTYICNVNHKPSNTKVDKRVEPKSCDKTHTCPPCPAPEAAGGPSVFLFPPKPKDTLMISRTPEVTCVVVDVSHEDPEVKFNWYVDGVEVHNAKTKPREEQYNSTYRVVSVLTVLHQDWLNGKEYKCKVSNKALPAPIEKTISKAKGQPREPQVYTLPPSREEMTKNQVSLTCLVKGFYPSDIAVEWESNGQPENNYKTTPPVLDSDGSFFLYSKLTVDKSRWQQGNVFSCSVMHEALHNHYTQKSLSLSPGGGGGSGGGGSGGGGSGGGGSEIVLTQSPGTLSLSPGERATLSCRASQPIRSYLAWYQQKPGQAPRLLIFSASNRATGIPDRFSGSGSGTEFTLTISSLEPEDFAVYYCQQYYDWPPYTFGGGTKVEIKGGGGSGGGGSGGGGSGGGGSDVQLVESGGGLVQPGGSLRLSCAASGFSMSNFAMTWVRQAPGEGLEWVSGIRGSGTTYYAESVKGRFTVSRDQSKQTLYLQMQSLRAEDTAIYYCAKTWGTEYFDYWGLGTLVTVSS
light: B9 light
EC90; Jurkat-CD137 NFkB-luciferase, HT1080-FAP co-culture [1]: 1.42 | IC90; Jurkat-CD137 NFkB-luciferase, HT1080-FAP co-culture [1]: 69.6 | Total AUC; Jurkat-CD137 NFkB-luciferase, HT1080-FAP co-culture [1]: 2.4e+06

Continued, values first:

EC90; Jurkat-CD137 NFkB-luciferase, HT1080-FAP co-culture [1]: 2.57 | IC90; Jurkat-CD137 NFkB-luciferase, HT1080-FAP co-culture [1]: 137 | Total AUC; Jurkat-CD137 NFkB-luciferase, HT1080-FAP co-culture [1]: 1.13e+07
B5: CD137 #10 (A49.V48) + FAP #2 (A11 VK3/VH3) (bispecific antibody, human IgG1, kappa, L234A L235A)
heavy: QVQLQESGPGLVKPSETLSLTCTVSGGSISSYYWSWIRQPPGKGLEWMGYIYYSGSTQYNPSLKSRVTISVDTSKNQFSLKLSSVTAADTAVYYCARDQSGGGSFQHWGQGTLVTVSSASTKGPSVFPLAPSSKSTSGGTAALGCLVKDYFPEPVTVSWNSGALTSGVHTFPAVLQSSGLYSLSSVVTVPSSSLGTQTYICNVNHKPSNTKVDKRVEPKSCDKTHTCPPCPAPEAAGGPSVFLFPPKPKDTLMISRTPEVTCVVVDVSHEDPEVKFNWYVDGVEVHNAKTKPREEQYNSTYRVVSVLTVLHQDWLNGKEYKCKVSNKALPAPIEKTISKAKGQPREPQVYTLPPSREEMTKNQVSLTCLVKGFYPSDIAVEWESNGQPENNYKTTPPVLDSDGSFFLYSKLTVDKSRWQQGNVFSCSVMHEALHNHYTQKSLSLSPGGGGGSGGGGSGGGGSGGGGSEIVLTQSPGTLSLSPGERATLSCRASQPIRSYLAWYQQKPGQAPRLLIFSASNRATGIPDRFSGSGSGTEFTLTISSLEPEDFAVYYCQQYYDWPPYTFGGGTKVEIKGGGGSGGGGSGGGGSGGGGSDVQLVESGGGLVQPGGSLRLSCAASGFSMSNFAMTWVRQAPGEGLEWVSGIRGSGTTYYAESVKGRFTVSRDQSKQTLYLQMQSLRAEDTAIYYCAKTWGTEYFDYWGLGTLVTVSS
light: B1 light with N33Q, L55G

EC90; Jurkat-CD137 NFkB-luciferase, HT1080-FAP co-culture [1]: 4.23 | IC90; Jurkat-CD137 NFkB-luciferase, HT1080-FAP co-culture [1]: 742 | Total AUC; Jurkat-CD137 NFkB-luciferase, HT1080-FAP co-culture [1]: 7.8e+06
B6: CD137 #9 (A49.V47) + FAP #5 (C3 VK1/VH4) (bispecific antibody, human IgG1, kappa, L234A L235A)
heavy: not shown
light: B1 light with N33Q, L55G

EC90; Jurkat-CD137 NFkB-luciferase, HT1080-FAP co-culture [1]: 1.91 | IC90; Jurkat-CD137 NFkB-luciferase, HT1080-FAP co-culture [1]: 86.7 | Total AUC; Jurkat-CD137 NFkB-luciferase, HT1080-FAP co-culture [1]: 1.26e+07
B7: CD137 #10 (A49.V48) + FAP #3 (A11 VK7/VH1) (bispecific antibody, human IgG1, kappa, L234A L235A)
heavy: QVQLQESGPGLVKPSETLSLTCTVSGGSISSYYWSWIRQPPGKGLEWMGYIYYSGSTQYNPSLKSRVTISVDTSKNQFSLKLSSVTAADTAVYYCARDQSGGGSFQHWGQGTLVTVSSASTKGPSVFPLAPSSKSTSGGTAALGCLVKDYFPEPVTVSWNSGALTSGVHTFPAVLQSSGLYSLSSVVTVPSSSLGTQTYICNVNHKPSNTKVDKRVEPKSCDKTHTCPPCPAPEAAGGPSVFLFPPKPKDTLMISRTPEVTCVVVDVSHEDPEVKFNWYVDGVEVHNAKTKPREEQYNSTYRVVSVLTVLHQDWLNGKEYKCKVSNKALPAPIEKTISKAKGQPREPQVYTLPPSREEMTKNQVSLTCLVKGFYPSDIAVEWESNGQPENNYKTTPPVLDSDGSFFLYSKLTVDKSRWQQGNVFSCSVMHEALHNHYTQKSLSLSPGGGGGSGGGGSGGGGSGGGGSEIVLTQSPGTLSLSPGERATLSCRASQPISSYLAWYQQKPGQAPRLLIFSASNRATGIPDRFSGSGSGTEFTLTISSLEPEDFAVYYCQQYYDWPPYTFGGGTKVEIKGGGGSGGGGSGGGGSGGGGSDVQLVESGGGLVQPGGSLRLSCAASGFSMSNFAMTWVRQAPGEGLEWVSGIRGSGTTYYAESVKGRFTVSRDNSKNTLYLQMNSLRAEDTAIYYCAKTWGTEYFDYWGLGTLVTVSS
light: B1 light with N33Q, L55G

EC90; Jurkat-CD137 NFkB-luciferase, HT1080-FAP co-culture [1]: 6.24 | IC90; Jurkat-CD137 NFkB-luciferase, HT1080-FAP co-culture [1]: 700 | Total AUC; Jurkat-CD137 NFkB-luciferase, HT1080-FAP co-culture [1]: 1.13e+07
B8: CD137 #10 (A49.V48) + FAP #5 (C3 VK1/VH4) (bispecific antibody, human IgG1, kappa, L234A L235A)
heavy: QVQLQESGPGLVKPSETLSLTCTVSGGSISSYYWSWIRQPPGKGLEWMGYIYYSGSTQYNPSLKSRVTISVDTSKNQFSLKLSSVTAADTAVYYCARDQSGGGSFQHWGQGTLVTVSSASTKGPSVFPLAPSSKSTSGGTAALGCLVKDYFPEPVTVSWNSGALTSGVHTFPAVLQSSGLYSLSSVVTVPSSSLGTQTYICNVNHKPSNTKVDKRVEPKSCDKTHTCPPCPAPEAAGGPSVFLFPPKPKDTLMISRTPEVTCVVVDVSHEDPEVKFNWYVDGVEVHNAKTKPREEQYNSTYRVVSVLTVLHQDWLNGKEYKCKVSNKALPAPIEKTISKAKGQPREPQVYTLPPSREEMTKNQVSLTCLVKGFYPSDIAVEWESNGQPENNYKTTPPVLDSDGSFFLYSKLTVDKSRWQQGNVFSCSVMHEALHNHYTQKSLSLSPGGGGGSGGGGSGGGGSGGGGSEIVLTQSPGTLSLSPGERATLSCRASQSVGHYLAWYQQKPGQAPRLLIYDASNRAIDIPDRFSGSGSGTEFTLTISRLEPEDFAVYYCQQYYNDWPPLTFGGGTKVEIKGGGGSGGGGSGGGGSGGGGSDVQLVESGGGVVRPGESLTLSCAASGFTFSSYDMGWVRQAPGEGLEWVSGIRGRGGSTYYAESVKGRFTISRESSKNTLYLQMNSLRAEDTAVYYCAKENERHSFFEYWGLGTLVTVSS
light: B1 light with N33Q, L55G

— patent publication US20250136720A1 (Boehringer Ingelheim, published 2025)
